The DeepSol protein solubility set

Experiment: soluble on expression in E. coli; label from the status in PepcDB or PDB records

Row | Sequence | soluble on expression in E. coli
1 | MKSVIIVGAGIGGLCLAQGLAKAGIEFEVWEADAGPQVRGQGYRLRIDAMGQRALRQCLPPDLFELFRASCAVSGPARFVDPQLNPLPGRRPENWRENADAGEAGGDLSADRQVLRDILSHGLAPQIRWGRRARGFERGGDGIVVHCADGSEHGAALVVAADGLHSPLRRQWLPQAEPEAIGALNLYGKTPLDGIDPALLAGPTIVFADGWTLVVEPMRFRAAMSGLAARHAPDCRLSPTDDYVYWAMFGREACLGGSLSGEEDAAGWRRRIEAASGGLHPGLSDLLRRTAPEAVMGRAVRMAAGVPSWPPGRLTVLGDAIHAMSPAGGVGANTALADAAMLAVCLADGDVDRAVARYEADMRGRAERALVATRAGTERLLRRLLEHHHHHH | soluble
2 | MKSVKEIRKSQVNSMISDQYEIFHVKDMVSPEKTIYHYHDFYEVHCTLKGVATFFLDGHQFDVEAGTVLLIHYHDLHRIIKQSTDDFERMYIFLTPDFLQQRSSKRTNLSACFQHFGQRRSKVIKVDVAKLANYLTPLDHSPLPEEYGADVRYEQQLLDFLIYLNQLVLKEENESQPKQMIENER | not soluble
3 | MKSYPDPYRHFENLDSAETQNFAAEANAETRARFLENDKARALSDGILAQLQDTRQIPFCQEHRARMYHFHQDAEYPKGVYRVCTAATYRSGYPEWKILFSVADFDELLGDDVYLGGVSHLVEQPNRALLTLSKLGSDTAYTLEVDLEAGELVEGGFHFPAGKNHVSWRDENSVWVCPAWNERQLTQSGYPREVWLVERGKSFEESLPVYQIGEDGMMVNAWRYLDPQGSPIDLIEASDGFYTKTYLRVSAEGEAKPLNLPNDCDVVGYLAGHLLLTLRKDWN | not soluble
4 | MKTEEMKFINESEFKKLKHYFEQKNTTSSLVLLVALTTGGRFSEIAKLKREDLDIKNNKIHLRGTKTETSDRIISIDTVTMKRIQSFIDSRPTNISGYIFTVDGKTITNAAVNKVLRKACANLNIKEITIHSLRHSFCSILIHHGFSILYISKHLGHSNPATTQSIYSHLLEHHHHHH | soluble
5 | MKTENFRSYNQRVYSETLNDGLKITLIPKKDFHSVFAALFVNAGATDQQIVDEKGETIIFPSGTAHFAEHKMFEKKNGDVSEIFSAYGAFSNAYTSQSQTVYYFQGTENIDQSIKLLLQFVQEPYYTEASVAKEQGIIGQEISMYQDMPDWVSSFGLMKNLYRKQPLGEDIAGNIDSIETINADLLYKFHRYFYQPSNLQLKIAGNIDPTGLLALLKQTQARLTRPRINFSRVNRFNAKIPVKKSAEQNMPVALPLLAAGIKGSGNLPDIDTAIDLSFSSDLILDIYFSDSSDWYLRNYNQGFLNDDFSAQADVGRNYNFITFTGHSENKELFKEIYSQLKNISYSQELEKEFQWQKKASLGELSMSLDQLENNVFTIADVFNTDVNIFRVIEKLRELTYRKAVNLFESYYNLDSFSSFCVNPVE | not soluble
6 | MKTETPSVKIVAITADEAGQRIDNFLRTQLKGVPKSMIYRILRKGEVRVNKKRIKPEYKLEAGDEVRIPPVRVAEREEEAVSPHLQKVAALADVILYEDDHILVLNKPSGTAVHGGSGLSFGVIEGLRALRPEARFLELVHRLDRDTSGVLLVAKKRSALRSLHEQLREKGMQKDYLALVRGQWQSHVKSVQAPLLKNILQSGERIVRVSQEGKPSETRFKVEERYAFATLVRCSPVTGRTHQIRVHTQYAGHPIAFDDRYGDREFDRQLTEAGTGLNRLFLHAAALKFTHPGTGEVMRIEAPMDEGLKRCLQKLRNAR | soluble
7 | MKTFKLVGLSVIDDDMHRQDIPFIDGLIINKEDGQNRWLVEAYLDDDYEPMFVSLQRRPEFQLQVTITHTSNDPANMLVTVRSITKMNGHISVLMEGLMIPRRTHLAEVVLAGLVKKGLQGEALLQEFRQQMHERIDAKAPQERKR | not soluble
8 | MKTIVVLGAGYAGLKTVVALQKKLRKEVRIILIDRNPYHYETMRLYEVASGSAPYTRMSYELADVLDKNMNELVVDQVEKIDLKNKTVELTKHKPISYDYCVVGLGFVLSSMGIAGAQENALPMSNVKQAQAIRDHIESEMRAYVKDHDSQHLSIVICGAGFQAIELAGALAQARPCFAQTAGTDPEKITIKMIDGSPRLLPMFQGKLLDYAINLSALEHHHHHH | not soluble
